From patent US20230390362A1, “USE OF TRIGONAL AGONIST HAVING ACTIVITIES TO ALL OF GLUCAGON, GLP-1, AND GIP RECEPTORS IN TREATMENT OF SEQUELAE FOLLOWING RESPIRATORY INFECTIOUS DISEASES” (HANMI PHARM. CO., LTD., priority 2020, published 2023)
Positions of bridges follow the written chain, without caps; N, C: chain ends. Non-standard residues stand in square brackets, D forms with d. No end group written: not given here. *: point of attachment. Acetyl(2-(4-imidazolyl)) = O=C(Cc1c[nH]cn1)*; Aib = CC(C)(N)C(=O)O

Biological target: human GLP-1 receptor (human, UniProt P43220 24-463)
Assay: cell-based or functional assay

Row | Binder | In vitro activity relative to native peptide (%), vs. GLP-1 (cAMP EC50) [%]
1 | {Acetyl(2-(4-imidazolyl))}-GQGTFTSDYSIQLDEIAVRDFVEWLKNGGPSSGAPPPSHG [trigonal agonist of SEQ ID NO: 14] | 28
2 | H[Aib]QGTFTSDYSIAMDEIHQKDFVNWLLAQKC (bridge 16-20) [trigonal agonist of SEQ ID NO: 33] | 24.5
3 | Y[Aib]QGTFTSDYSKYLDECRAKEFVQWLLAQKGKKNDWKHNIT (bridge 16-20) [trigonal agonist of SEQ ID NO: 23] | 4.01
4 | H[Aib]QGTFTSDCSKYLDSRAAQDFVQWLLDGGPSSGAPPPS [trigonal agonist of SEQ ID NO: 26] | 64.5
5 | Y[Aib]QGTFTSDYSKYLDECRAKEFVQWLKNGGPSSGAPPPS (bridge 16-20) [trigonal agonist of SEQ ID NO: 24] | 41.2
6 | {Acetyl(2-(4-imidazolyl))}-GQGTFTSDLSIQYEEEAQQDFVEWLKDTGPSSGAPPPSHG [trigonal agonist of SEQ ID NO: 20] | < 0.1
7 | H[Aib]QGTFTSDYSKYLDEKACKEFVQWLLAQ (bridge 16-20) [trigonal agonist of SEQ ID NO: 31] | 135
8 | H[Aib]QGTFTSDYSKYLDERACQDFVQWLLDQGGPSSGAPPPS [trigonal agonist of SEQ ID NO: 27] | 83.1
9 | {Acetyl(2-(4-imidazolyl))}-GQGTFTSDLSKQMDEERAREFIEWLLAQKPSSGAPPPSHG [trigonal agonist of SEQ ID NO: 17] | 0.2
10 | H[Aib]QGTFTSDYSKYLDEKAAKEFVQWLLNTC (bridge 16-20) [trigonal agonist of SEQ ID NO: 29] | 38.5
11 | H[Aib]QGTFTSDYSKYLDEKACKDFVQWLLDGGPSSGAPPPS (bridge 16-20) [trigonal agonist of SEQ ID NO: 32] | 151
12 | H[Aib]QGTFTSDYSKYLDEKAQKEFVQWLLDTC (bridge 16-20) [trigonal agonist of SEQ ID NO: 30] | 142
13 | H[Aib]QGTFTSDCSKYLDERAAQDFVQWLLDGGPSSGAPPPS [trigonal agonist of SEQ ID NO: 25] | 82.6
14 | {Acetyl(2-(4-imidazolyl))}-GQGTFTSDLSKQMDSEAQQLFIEWLKNGGPSSGAPPPSHG [trigonal agonist of SEQ ID NO: 16] | 2.1
15 | Y[Aib]QGTFTSDYSKYLDECRAKEFVQWLLDHHPSSGQPPPS (bridge 16-20) [trigonal agonist of SEQ ID NO: 21] | 17.8
16 | H[Aib]QGTFTSDYSKYLDEKRAQEFVCWLLAQKGKKNDWKHNIT [trigonal agonist of SEQ ID NO: 28] | 17.2
17 | {Acetyl(2-(4-imidazolyl))}-GQGTFTSDLSKQMDSERAREFIEWLKNTGPSSGAPPPSHG [trigonal agonist of SEQ ID NO: 18] | < 0.1
18 | {Acetyl(2-(4-imidazolyl))}-GQGTFTSDLSIQYDSEHQRDFIEWLKDTGPSSGAPPPSHG [trigonal agonist of SEQ ID NO: 19] | < 0.1
19 | H[Aib]QGTFTSDVSSYLLGQAAKQFIAWLVKGGGPSSGAPPPSC [trigonal agonist of SEQ ID NO: 3] | 1.8
20 | Y[Aib]QGTFTSDYSKCLDEKRAKEFVQWLLDHHPSSGQPPPS (bridge 16-20) [trigonal agonist of SEQ ID NO: 22] | 20.1
21 | H[Aib]QGTFTSDVSSYLDGQAQKEFIAWLVKGC [trigonal agonist of SEQ ID NO: 2] | 5.9

Biological target: T1, human GIP receptor (human, UniProt P48546 22-466)
T1 sequence (looked up): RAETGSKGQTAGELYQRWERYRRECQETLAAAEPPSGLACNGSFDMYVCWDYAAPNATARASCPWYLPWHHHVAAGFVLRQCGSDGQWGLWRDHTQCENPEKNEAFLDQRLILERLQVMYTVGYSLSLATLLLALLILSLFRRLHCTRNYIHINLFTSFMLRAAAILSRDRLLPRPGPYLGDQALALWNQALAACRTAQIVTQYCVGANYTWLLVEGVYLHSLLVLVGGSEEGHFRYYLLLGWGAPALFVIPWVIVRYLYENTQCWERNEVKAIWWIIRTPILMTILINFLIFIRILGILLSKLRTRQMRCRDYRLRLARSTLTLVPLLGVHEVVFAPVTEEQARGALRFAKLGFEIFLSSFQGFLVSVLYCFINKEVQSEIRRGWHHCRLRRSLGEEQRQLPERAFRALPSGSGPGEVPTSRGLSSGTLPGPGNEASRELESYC
Assay: cell-based or functional assay

Row | Binder | In vitro activity relative to native peptide (%), vs. GIP (cAMP EC50) [%]
22 | {Acetyl(2-(4-imidazolyl))}-GQGTFTSDYSIQLDEIAVRDFVEWLKNGGPSSGAPPPSHG [trigonal agonist of SEQ ID NO: 14] | < 0.1
23 | H[Aib]QGTFTSDYSIAMDEIHQKDFVNWLLAQKC (bridge 16-20) [trigonal agonist of SEQ ID NO: 33] | 10.4
24 | Y[Aib]QGTFTSDYSKYLDECRAKEFVQWLLAQKGKKNDWKHNIT (bridge 16-20) [trigonal agonist of SEQ ID NO: 23] | < 0.1
25 | H[Aib]QGTFTSDCSKYLDSRAAQDFVQWLLDGGPSSGAPPPS [trigonal agonist of SEQ ID NO: 26] | < 0.1
26 | Y[Aib]QGTFTSDYSKYLDECRAKEFVQWLKNGGPSSGAPPPS (bridge 16-20) [trigonal agonist of SEQ ID NO: 24] | < 0.1
27 | {Acetyl(2-(4-imidazolyl))}-GQGTFTSDLSIQYEEEAQQDFVEWLKDTGPSSGAPPPSHG [trigonal agonist of SEQ ID NO: 20] | < 0.1
28 | H[Aib]QGTFTSDYSKYLDEKACKEFVQWLLAQ (bridge 16-20) [trigonal agonist of SEQ ID NO: 31] | 2.4
29 | H[Aib]QGTFTSDYSKYLDERACQDFVQWLLDQGGPSSGAPPPS [trigonal agonist of SEQ ID NO: 27] | 0.9
30 | {Acetyl(2-(4-imidazolyl))}-GQGTFTSDLSKQMDEERAREFIEWLLAQKPSSGAPPPSHG [trigonal agonist of SEQ ID NO: 17] | < 0.1
31 | H[Aib]QGTFTSDYSKYLDEKAAKEFVQWLLNTC (bridge 16-20) [trigonal agonist of SEQ ID NO: 29] | < 0.1
32 | H[Aib]QGTFTSDYSKYLDEKACKDFVQWLLDGGPSSGAPPPS (bridge 16-20) [trigonal agonist of SEQ ID NO: 32] | 8.8
33 | H[Aib]QGTFTSDYSKYLDEKAQKEFVQWLLDTC (bridge 16-20) [trigonal agonist of SEQ ID NO: 30] | 0.8
34 | H[Aib]QGTFTSDCSKYLDERAAQDFVQWLLDGGPSSGAPPPS [trigonal agonist of SEQ ID NO: 25] | < 0.1
35 | {Acetyl(2-(4-imidazolyl))}-GQGTFTSDLSKQMDSEAQQLFIEWLKNGGPSSGAPPPSHG [trigonal agonist of SEQ ID NO: 16] | < 0.1
36 | Y[Aib]QGTFTSDYSKYLDECRAKEFVQWLLDHHPSSGQPPPS (bridge 16-20) [trigonal agonist of SEQ ID NO: 21] | 22.7
37 | H[Aib]QGTFTSDYSKYLDEKRAQEFVCWLLAQKGKKNDWKHNIT [trigonal agonist of SEQ ID NO: 28] | < 0.1
38 | {Acetyl(2-(4-imidazolyl))}-GQGTFTSDLSKQMDSERAREFIEWLKNTGPSSGAPPPSHG [trigonal agonist of SEQ ID NO: 18] | < 0.1
39 | {Acetyl(2-(4-imidazolyl))}-GQGTFTSDLSIQYDSEHQRDFIEWLKDTGPSSGAPPPSHG [trigonal agonist of SEQ ID NO: 19] | < 0.1
40 | H[Aib]QGTFTSDVSSYLLGQAAKQFIAWLVKGGGPSSGAPPPSC [trigonal agonist of SEQ ID NO: 3] | < 0.1
41 | Y[Aib]QGTFTSDYSKCLDEKRAKEFVQWLLDHHPSSGQPPPS (bridge 16-20) [trigonal agonist of SEQ ID NO: 22] | 59.7
42 | H[Aib]QGTFTSDVSSYLDGQAQKEFIAWLVKGC [trigonal agonist of SEQ ID NO: 2] | < 0.1

Biological target: human GCG receptor (human, UniProt P47871 26-477)
Sequence (P47871 26-477): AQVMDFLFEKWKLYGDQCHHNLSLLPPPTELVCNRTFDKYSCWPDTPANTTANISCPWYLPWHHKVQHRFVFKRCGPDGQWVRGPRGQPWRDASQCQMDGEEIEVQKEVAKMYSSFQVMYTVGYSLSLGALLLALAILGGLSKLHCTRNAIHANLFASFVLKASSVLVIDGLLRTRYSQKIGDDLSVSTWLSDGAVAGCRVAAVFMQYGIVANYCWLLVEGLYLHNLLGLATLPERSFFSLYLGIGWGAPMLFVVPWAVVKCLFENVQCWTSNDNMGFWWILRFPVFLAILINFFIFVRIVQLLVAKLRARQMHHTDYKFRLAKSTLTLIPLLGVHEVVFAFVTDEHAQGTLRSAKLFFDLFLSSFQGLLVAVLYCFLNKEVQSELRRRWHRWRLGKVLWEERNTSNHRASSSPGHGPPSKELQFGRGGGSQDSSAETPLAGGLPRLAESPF
Assay: cell-based or functional assay

Row | Binder | In vitro activity relative to native peptide (%), vs. Glucagon (cAMP EC50) [%]
43 | {Acetyl(2-(4-imidazolyl))}-GQGTFTSDYSIQLDEIAVRDFVEWLKNGGPSSGAPPPSHG [trigonal agonist of SEQ ID NO: 14] | < 0.1
44 | H[Aib]QGTFTSDYSIAMDEIHQKDFVNWLLAQKC (bridge 16-20) [trigonal agonist of SEQ ID NO: 33] | < 0.1
45 | Y[Aib]QGTFTSDYSKYLDECRAKEFVQWLLAQKGKKNDWKHNIT (bridge 16-20) [trigonal agonist of SEQ ID NO: 23] | 9.3
46 | H[Aib]QGTFTSDCSKYLDSRAAQDFVQWLLDGGPSSGAPPPS [trigonal agonist of SEQ ID NO: 26] | 0.2
47 | Y[Aib]QGTFTSDYSKYLDECRAKEFVQWLKNGGPSSGAPPPS (bridge 16-20) [trigonal agonist of SEQ ID NO: 24] | 9.3
48 | {Acetyl(2-(4-imidazolyl))}-GQGTFTSDLSIQYEEEAQQDFVEWLKDTGPSSGAPPPSHG [trigonal agonist of SEQ ID NO: 20] | < 0.1
49 | H[Aib]QGTFTSDYSKYLDEKACKEFVQWLLAQ (bridge 16-20) [trigonal agonist of SEQ ID NO: 31] | 2.2
50 | H[Aib]QGTFTSDYSKYLDERACQDFVQWLLDQGGPSSGAPPPS [trigonal agonist of SEQ ID NO: 27] | 0.8
51 | {Acetyl(2-(4-imidazolyl))}-GQGTFTSDLSKQMDEERAREFIEWLLAQKPSSGAPPPSHG [trigonal agonist of SEQ ID NO: 17] | < 0.1
52 | H[Aib]QGTFTSDYSKYLDEKAAKEFVQWLLNTC (bridge 16-20) [trigonal agonist of SEQ ID NO: 29] | 6
53 | H[Aib]QGTFTSDYSKYLDEKACKDFVQWLLDGGPSSGAPPPS (bridge 16-20) [trigonal agonist of SEQ ID NO: 32] | 1.7
54 | H[Aib]QGTFTSDYSKYLDEKAQKEFVQWLLDTC (bridge 16-20) [trigonal agonist of SEQ ID NO: 30] | 0.7
55 | H[Aib]QGTFTSDCSKYLDERAAQDFVQWLLDGGPSSGAPPPS [trigonal agonist of SEQ ID NO: 25] | 0.1
56 | {Acetyl(2-(4-imidazolyl))}-GQGTFTSDLSKQMDSEAQQLFIEWLKNGGPSSGAPPPSHG [trigonal agonist of SEQ ID NO: 16] | < 0.1
57 | Y[Aib]QGTFTSDYSKYLDECRAKEFVQWLLDHHPSSGQPPPS (bridge 16-20) [trigonal agonist of SEQ ID NO: 21] | 267
58 | H[Aib]QGTFTSDYSKYLDEKRAQEFVCWLLAQKGKKNDWKHNIT [trigonal agonist of SEQ ID NO: 28] | 1.6
59 | {Acetyl(2-(4-imidazolyl))}-GQGTFTSDLSKQMDSERAREFIEWLKNTGPSSGAPPPSHG [trigonal agonist of SEQ ID NO: 18] | < 0.1
60 | {Acetyl(2-(4-imidazolyl))}-GQGTFTSDLSIQYDSEHQRDFIEWLKDTGPSSGAPPPSHG [trigonal agonist of SEQ ID NO: 19] | < 0.1
61 | H[Aib]QGTFTSDVSSYLLGQAAKQFIAWLVKGGGPSSGAPPPSC [trigonal agonist of SEQ ID NO: 3] | < 0.1
62 | Y[Aib]QGTFTSDYSKCLDEKRAKEFVQWLLDHHPSSGQPPPS (bridge 16-20) [trigonal agonist of SEQ ID NO: 22] | 140
63 | H[Aib]QGTFTSDVSSYLDGQAQKEFIAWLVKGC [trigonal agonist of SEQ ID NO: 2] | < 0.1
